According to paper PMC5531539 (PLoS ONE, 2017):
Where a chain is given by its changes, count along the chain named.

How the values were obtained:
Details in all cases: both partners purified
[1] = molecular target: T1, Full-length isoform 165 of human VEGF-A (Homo sapiens, UniProt P15692-4, strain); experiment: SPR; BioRad ProteOn XPR36; HER2 or VEGF amine-coupled to a GLC chip (about 150 RU); Fab as analyte, 3-fold dilutions from 30, 60 or 120 nM; 25C; PBS, 0.05% Tween 20, 3.4 mM EDTA; 1:1 binding model, KD from koff/kon
T1 construct: human vascular endothelial growth factor A, 165 amino acid isoform (VEGF165); also called VEGF165
T1 sequence (P15692 whole entry, looked up, stated change not applied, canonical isoform): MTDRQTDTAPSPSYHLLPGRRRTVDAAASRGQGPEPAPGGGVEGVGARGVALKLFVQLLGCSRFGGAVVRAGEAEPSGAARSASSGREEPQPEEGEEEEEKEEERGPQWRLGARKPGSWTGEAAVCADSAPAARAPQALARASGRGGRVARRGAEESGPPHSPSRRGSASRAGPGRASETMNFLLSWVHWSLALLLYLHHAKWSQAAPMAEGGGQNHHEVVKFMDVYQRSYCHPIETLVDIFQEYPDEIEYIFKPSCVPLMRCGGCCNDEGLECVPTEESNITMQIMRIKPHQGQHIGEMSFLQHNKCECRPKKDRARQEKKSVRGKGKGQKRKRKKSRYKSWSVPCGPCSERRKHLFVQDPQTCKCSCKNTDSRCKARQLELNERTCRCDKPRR

[2] = molecular target: T2, Recombinant soluble human HER2 extracellular domain (Homo sapiens, UniProt P04626); experiment: as above
T2 construct: human HER2 (ErbB2), soluble extracellular domain; also called HER2 ectodomain; Receptor-tyrosine kinase ErbB2 soluble ectodomain; source: bought: eBioscience

[3] = molecular target: T3, Full-length isoform 165 of human VEGF-A (Homo sapiens, UniProt P15692-4, strain); experiment: SPR; BioRad ProteOn XPR36, GLC chip; HER2 and VEGF amine-coupled (about 150 RU); Fab variants injected as analyte in 3-fold dilutions (top 30, 60 or 120 nM); 25C, PBS with 0.05% Tween 20 and 3.4 mM EDTA; 1:1 model; KWT/K uses the parent Fab's K of the same batch
T3 construct: vascular endothelial growth factor A, human, 165 amino acid isoform; also called VEGF165; source: produced recombinantly and purified
T3 sequence (P15692 whole entry, looked up, stated change not applied, canonical isoform): as above

B1: bH1 Fab (parent) (Fab, V domains shown)
VH: not shown
VL: DIQMTQSPSSLSASVGDRVTITCRASQDIPRSISGYVAWYQQKPGKAPKLLIYWGSYLYSGVPSRFSGSGSGTDFTLTISSLQPEDFATYYCQQHYTTPPTFGQGTKVEIK
notes: Fab heavy chain of bH1; numbers count on: Bostrom et al. [8]; Fab light chain of bH1; also called WT; source: CHO-3E7, co-transfected, His-tag purified
- Kd [1]: 44 ± 17 nM
- koff [1]: 0.009 s⁻¹
- kon [1]: 220000 M⁻¹ s⁻¹
- Kd [2]: 3.6 ± 0.6 nM
- koff [2]: 0.0013 s⁻¹
- kon [2]: 370000 M⁻¹ s⁻¹

B2: bH1 Fab LS30dM (Fab, V domains shown)
VH: not shown
VL: B1 VL with S34M
notes: as the heavy chain of Sm3; bH1 Fab light chain, parent as in Sm3; numbers count on: Bostrom et al; source: CHO-3E7, co-transfected, purified (His tag)
- binding result [3]: no binding

B3: bH1 Fab LS30dL (Fab, V domains shown)
VH: not shown
VL: B1 VL with S34L
notes: as for B2
- binding result [3]: no binding

B4: bH1 Fab HD98Y HD31K LI29R (Fab, V domains shown)
VH: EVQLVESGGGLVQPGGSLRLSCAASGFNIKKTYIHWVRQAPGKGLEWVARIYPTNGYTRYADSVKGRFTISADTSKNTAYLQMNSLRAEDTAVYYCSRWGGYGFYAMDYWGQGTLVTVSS
VL: B1 VL with I29R
notes: as the heavy chain of m4 with the stated changes; numbers count on: Bostrom et al. [8]; as the light chain of m4 with the stated change; also called best triple mutant (bH1-HER2); source: CHO-3E7, co-transfected, His-tag purified
- Kd [2]: 0.07 ± 0.01 nM
- koff [2]: 0.00025 s⁻¹
- kon [2]: 3.8e+06 M⁻¹ s⁻¹

B5: bH1 Fab HD98K HD31K LI29K (Fab, V domains shown)
VH: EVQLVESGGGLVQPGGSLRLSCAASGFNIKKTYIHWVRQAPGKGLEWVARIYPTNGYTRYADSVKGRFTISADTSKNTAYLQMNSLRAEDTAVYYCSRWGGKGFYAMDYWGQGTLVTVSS
VL: B1 VL with I29K
notes: as the heavy chain of m4 with the stated changes; numbers count on: Bostrom et al. [8]; as the light chain of m4 with the stated change; source: CHO-3E7, co-transfected, His-tag purified
- Kd [2]: 0.15 ± 0.05 nM
- koff [2]: 0.00039 s⁻¹
- kon [2]: 2.3e+06 M⁻¹ s⁻¹

B6: bH1 Fab HD98F HD31K LI29R (Fab, V domains shown)
VH: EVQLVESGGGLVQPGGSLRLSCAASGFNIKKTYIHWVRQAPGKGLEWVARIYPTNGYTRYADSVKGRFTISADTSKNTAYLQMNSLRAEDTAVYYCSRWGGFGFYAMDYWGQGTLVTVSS
VL: B1 VL with I29R
notes: as for B5
- Kd [2]: 0.11 ± 0.02 nM
- koff [2]: 0.00029 s⁻¹
- kon [2]: 2.7e+06 M⁻¹ s⁻¹

B7: bH1 Fab HD98W HY33W HG99M (Fab, V domains shown)
VH: EVQLVESGGGLVQPGGSLRLSCAASGFNIKDTWIHWVRQAPGKGLEWVARIYPTNGYTRYADSVKGRFTISADTSKNTAYLQMNSLRAEDTAVYYCSRWGGWMFYAMDYWGQGTLVTVSS
VL: B1 VL
notes: as the heavy chain of m4 with the stated changes; numbers count on: Bostrom et al. [8]; as the light chain of m4; source: CHO-3E7, co-transfected, His-tag purified
- Kd [1]: 1.2 ± 0.2 nM
- koff [1]: 0.00034 s⁻¹
- kon [1]: 290000 M⁻¹ s⁻¹

B8: bH1 Fab HD98Y HD31K LI29K (Fab, V domains shown)
VH: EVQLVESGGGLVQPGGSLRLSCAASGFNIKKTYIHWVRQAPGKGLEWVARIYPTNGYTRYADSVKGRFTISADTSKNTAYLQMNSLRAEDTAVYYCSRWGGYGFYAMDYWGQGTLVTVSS
VL: B1 VL with I29K
notes: as for B5
- Kd [2]: 0.14 ± 0.09 nM
- koff [2]: 0.00028 s⁻¹
- kon [2]: 2.2e+06 M⁻¹ s⁻¹

B9: bH1 Fab HD98K HD31K LI29R (Fab, V domains shown)
VH: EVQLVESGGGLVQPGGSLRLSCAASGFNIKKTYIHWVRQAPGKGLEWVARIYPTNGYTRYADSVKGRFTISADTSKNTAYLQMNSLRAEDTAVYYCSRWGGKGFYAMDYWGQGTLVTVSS
VL: B1 VL with I29R
notes: as for B5
- Kd [2]: 0.11 ± 0.02 nM
- koff [2]: 0.00045 s⁻¹
- kon [2]: 4.4e+06 M⁻¹ s⁻¹

B10: bH1 Fab HD98W HY33W HG99D (Fab, V domains shown)
VH: B7 VH with M103D
VL: B1 VL
notes: as the heavy chain of m4 with the stated changes; numbers count on: Bostrom et al. [8]; as the light chain of m4; also called best triple mutant (bH1-VEGF); source: CHO-3E7, co-transfected, His-tag purified
- Kd [1]: 0.5 ± 0.1 nM
- koff [1]: 7e-05 s⁻¹
- kon [1]: 160000 M⁻¹ s⁻¹

B11: bH1 Fab HD98F HD31K LI29K (Fab, V domains shown)
VH: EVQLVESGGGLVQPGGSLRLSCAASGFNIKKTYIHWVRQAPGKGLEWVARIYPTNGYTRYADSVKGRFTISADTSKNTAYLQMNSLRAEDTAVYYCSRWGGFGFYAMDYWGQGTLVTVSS
VL: B1 VL with I29K
notes: as for B5
- Kd [2]: 0.14 ± 0.05 nM
- koff [2]: 0.00029 s⁻¹
- kon [2]: 2.2e+06 M⁻¹ s⁻¹
